From article PMC10325903, “Prediction of cooperative homeodomain DNA binding sites from high-throughput-SELEX data”

B1: Bsx_SELEX_1 (dsDNA)
DNA 1: TATGAAATCAATTATCTCATTAAGTTCGTAGTGCGGGCGTGGCT
DNA 2: AGCCACGCCCGCACTACGAACTTAATGAGATAATTGATTTCATA
B2: Bsx_SELEX_1+1 (dsDNA)
DNA 1: TATGAAATCAATTATCGTCATTAAGTTCGTAGTGCGGGCGTGGCT
DNA 2: AGCCACGCCCGCACTACGAACTTAATGACGATAATTGATTTCATA

Biological target: Bsx HD fragment (UniProt Q810B3 84-193)
Assay: EMSA; EMSA, 34 nM IRDye700 probe, room temperature 20 min, 4% polyacrylamide gel 150 V 2 h; binding buffer as in cited ref 35 (not given)
Settings: protein: recombinant; tags: N-terminal 6xHis (pET-14b or pET-14P; may be cleaved); chain copies: 2; label: 5' IRDye700 on bottom strand; blunt

Bsx HD fragment, sequence (Q810B3 84-193): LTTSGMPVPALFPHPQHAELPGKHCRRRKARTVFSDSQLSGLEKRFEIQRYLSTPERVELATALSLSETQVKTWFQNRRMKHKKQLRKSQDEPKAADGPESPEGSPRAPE

Row | Binder | cooperativity factor (tau)
1 | B1 | 9.8 ± 1 Tau cooperativity factor
2 | B2 | 0.9 ± 0.3 Tau cooperativity factor
